Results on 1 substance are retold here after paper PMC5161713.

Assay [1] has as its target wild-type CfaB, mature form, with N-terminal hexahistidine tag (^wtCfaB, (his)6CfaB) (enterotoxigenic Escherichia coli (ETEC)) (UniProt E3PPC4). Description: pull-down.
For assay [2] the target is unchanged.

For “wild-type CfaA with C-terminal Strep-tag (^wtCfaA, CfaA(Strep)) (natural protein)”, the ratio between CfaA and CfaB (densitometry of the pull-down) in assay [1] is 0.6. In assay [2], the kf, fast-phase rate constant of chaperone-assisted refolding of denatured CfaB is 0.54 s⁻¹.
